Results from PMC10610038, “New Insights into the Enhancement of Adventitious Root Formation Using N,N′-Bis(2,3-methylenedioxyphenyl)urea” (Plants, 2023).

Substrate: C/C(=C\CNc1ncnc2[nH]cnc12)CO
Experiment: purified protein
Settings: FAD

B1: ZmCKX1 (cytokinin oxidase/dehydrogenase) (Zea mays) (protein)
chain: LAAGTPALGDDRGRPWPASLAALALDGKLRTDSNATAAASTDFGNITSALPAAVLYPSSTGDLVALLSAANSTPGWPYTIAFRGRGHSLMGQAFAPGGVVVNMASLGDAAAPPRINVSADGRYVDAGGEQVWIDVLRASLARGVAPRSWNDYLYLTVGGTLSNAGISGQAFRHGPQISNVLEMDVITGHGEMVTCSKQLNADLFDAVLGGLGQFGVITRARIAVEPAPARARWVRFVYTDFAAFSADQERLTAPRPGGGGASFGPMSYVEGSVFVNQSLATDLANTGFFTDADVARIVALAGERNATTVYSIEATLNYDNATAAAAAVDQELASVLGTLSYVEGFAFQRDVAYAAFLDRVHGEEVALNKLGLWRVPHPWLNMFVPRSRIADFDRGVFKGILQGTDIVGPLIVYPLNKSMWDDGMSAATPSEDVFYAVSLLFSSVAPNDLARLQEQNRRILRFCDLAGIQYKTYLARHTDRSDWVRHFGAAKWNRFVEMKNKYDPKRLLSPGQDIFN
Protein B1 has a Km of 6.8 ± 1.3 µM.
